First the molecules themselves.
B1: Endoglucanase C, P0C2S3 (parent)
chain: MVSFKAGINLGGWISQYQVFSKEHFDTFITEKDIETIAEAGFDHVRLPFDYPIIESDDNVGEYKEDGLSYIDRCLEWCKKYNLGLVLDMHHAPGYRFQDFKTSTLFEDPNQQKRFVDIWRFLAKRYINEREHIAFELLNEVVEPDSTRWNKLMLEYIKAIREIDSTMWLYIGGNNYNSPDELKNLADIDDDYIVYNFHFYNPFFFTHQKAHWSESAMAYNRTVKYPGQYEGIEEFVKNNPKYSFMMELNNLKLNKELLRKDLKPAIEFREKKKCKLYCGEFGVIAIADLESRIKWHEDYISLLEEYDIGGAVWNYKKMDFEIYNEDRKPVSQELVNILARRKT

The variants in this data set derive from B1. The settings on record: Acetivibrio thermocellus, pH 7.2, structure 1CEC, whole UniProt chain shown; for Tm / change of melting temperature, mutant - wild type (higher = more stable): Thermal, DSC, Tris 20 mM, reversible: No.
Setting [1] is: 25 °C, GdnHCl, CD, Tris 50 mM, reversible: yes.

As a reminder, the Tm is the temperature at which the thermal transition is half complete.

In the case of I293A, the Tm worked out at 67.6 °C and the “change of melting temperature, mutant - wild type (higher = more stable)” value (from here on “change of melting temperature, mutant”) is -2.8 °C.
In the case of N220D T222A, the Tm was determined as 68.3 °C and the “change of melting temperature, mutant” value was -2.1 °C.
On to A6C R340C, for which the Tm stood at 73.4 °C. Under setting [1], the “ddG of mutation (higher = less stable)” value is -1.73 kcal/mol, the “denaturant midpoint (higher = more stable)” value came to 2.61 M and the unfolding free energy worked out at 8.03 kcal/mol.
Regarding E333G, the Tm amounted to 69.4 °C and the “change of melting temperature, mutant” value is -1 °C.
Take N9D: the Tm is 63.9 °C and the “change of melting temperature, mutant” value was -6.5 °C.

The values above are taken from FireProtDB (doi:10.1016/s0301-4622(02)00027-3).
